Paper PMC3383001 (Cell, 2012)

B1: KASH2 peptide (Nesprin-2, residues 6857–6885) co-expressed with SUN2(522–717) (peptide)
peptide: not shown
B2: His-SUN2(335–717), luminal domain of human SUN2 (predicted coiled-coil regions and SUN domain) (domain or fragment, UniProt Q9UH99 335-717, looked up)
chain: LVSRREAALKEDFRRETAARIQEELSALRAEHQQDSEDLFKKIVRASQESEARIQQLKSEWQSMTQESFQESSVKELRRLEDQLAGLQQELAALALKQSSVAEEVGLLPQQIQAVRDDVESQFPAWISQFLARGGGGRVGLLQREEMQAQLRELESKILTHVAEMQGKSAREAAASLSLTLQKEGVIGVTEEQVHHIVKQALQRYSEDRIGLADYALESGGASVISTRCSETYETKTALLSLFGIPLWYHSQSPRVILQPDVHPGNCWAFQGPQGFAVVRLSARIRPTAVTLEHVPKALSPNSTISSAPKDFAIFGFDEDLQQEGTLLGKFTYDQDGEPIQTFHFQAPTMATYQVVELRILTNWGHPEYTCIYRFRVHGEPAH
B3: SUN2(522–717), minimal SUN domain of human SUN2 used for crystallography (domain or fragment, UniProt Q9UH99 522-717, looked up)
chain: GVTEEQVHHIVKQALQRYSEDRIGLADYALESGGASVISTRCSETYETKTALLSLFGIPLWYHSQSPRVILQPDVHPGNCWAFQGPQGFAVVRLSARIRPTAVTLEHVPKALSPNSTISSAPKDFAIFGFDEDLQQEGTLLGKFTYDQDGEPIQTFHFQAPTMATYQVVELRILTNWGHPEYTCIYRFRVHGEPAH
B4: KASH1 peptide (Nesprin-1, residues 8769–8797) co-expressed with SUN2(522–717) (peptide)
peptide: not shown

How the values were obtained:
[1] = target: B3; test: crystal structure
[2] = target: the molecule itself; test: AUC
[3] = target: the molecule itself; test: crystal structure
[4] = target: B3; test: crystal structure; remark: listed apart in the source

Binder: B1
stoichiometry N [1]: 3 KASH2 peptides per SUN2 trimer

Binder: B2
stoichiometry N [2]: 3

Binder: B3
stoichiometry N [3]: 3

Binder: B4
binding result [4]: binds
